Experimental data reported in patent US20220017636A1 (Amgen, published 2022).

B1: 18182-H12 (scFv)
scFv: EVQLLESGGGLVQPGGSLRLSCAASGFTFSSYAMSWVRQAPGKGLEWVSTISGSGGGTYYADSVKGRFTISRDNSKNTLYLQMNSLRAEDTAVYYCATGKGVHLGFDYWGQGTLVTVSSGGGGSGGGGSGGGGSELMLTQPHSVSVAPGQTARITCGGNNIGSKSVHWYQQKPGQAPVLVVYDDNDRPSGIPERFSGSNFGNTATLIISRVEAGDEADYYCQVWDSSSDHVVFGGGTKLTVL
notes: scFv in bacterial lysate, detected with anti-Flag M2
B2: 18179-G12 (scFv)
scFv: EVQLLESGAEVKKPGASVKVSCKASGYTFTRNGLSWVRQAPGQGLEWMGWISGYNGDTNYAQKLQGRGTMTTDTSTSTAYMELRSLRSDDTAVYYCARGRATFDYWGQGTLVTVSSGGGGSGGGGSGGGGSELVMTQSPSSLSASVGDRVTITCRASQGISNYLAWYQQKPGKVPKLLISAASTLQSGVPSRFSGSGSGTDFTLTISSLQPEDVATYYCQKYNSAPFTFGPGTKLEIK
notes: as for B1
B3: 18179-C1 (scFv)
scFv: EVQLLESGAEVKKPGASVKVSCKASGYTFTRNGLSWVRQAPGQGLEWMGWISGYNGDTNYAQKLQGRGTMTTDTSTSTAYMELRSLRSDDTAVYYCARGRATFDYWGQGTLVTVSSGGGGSGGGGSGGGGSELVMTQSPSSLSASVGDRVTITCRASQGISNYLAWYQQKPGKVPKLLISAASTLQSGVPSRFSGSGSGTDFTLTISSLQPEDVATYYCQKYNSAPFTFGPGTKVDIK
notes: as for B1
B4: 18081-E7 (scFv)
scFv: EVQLLESGPGLVKPSETLSLTCTVSGDSISSSRYYWGWIRQPPGKGLEWIGSIYYSGSTYYNPSLKSRVTISVDTSKNQFSLKLSSVTAADTAVYYCARGIFGVITYFDYWGQGTLVTVSSGGGGSGGGGSGGGGSELVMTQTPDSLAVSLGERATINCKSSQSVLYSSNNKNYLAWYQQKPGQPPKLLIYWASTRESGVPDRFSGSGSGTDFTLTISSLQAEDVAVYYCQQYYSTPLTFGGGTKVEIK
notes: as for B1
B5: 18081-B9 (scFv)
scFv: EVQLLESGPGLVKPSETLSLTCTVSGDSISSSRYYWGWIRQPPGKGLEWIGSIYYSGSTYYNPSLKSRVTISVDTSKNQFSLKLSSVTAADTAVYYCARGIFGVITYFDYWGQGTLVTVSSGGGGSGGGGSGGGGSELVMTQSPDSLAVSLGERATINCKSSQSVLYSSNNKNYLAWYQQKPGQPPKLLIYWASTRESGVPDRFSGSGSGTDFTLTISSLQAEDVAVYYCQQFYSTPITFGQGTRLEIK
notes: as for B1
B6: 18081-H11 (scFv)
scFv: EVQLLESGPALVKPTQTLTLTCTFSGFSFTTHKMGVDWIRQPPGKALEWLALIYWNDDKRYSPSLQSRLTITKDTSKNQVVLTMTNMDPVDTATYYCAYRRYNWNYENWFDPWGQGTLVTVSSGGGGSGGGGSGGGGSELQMTQSPSSLSASVGDRVTITCQASQDISNYLNWYQQKPGKAPKLLIYAASSLQSGVPSRFSGSGSGTDFTLTISSLQPEDFATYYCQQSYTTPFTFGPGTKVEIK
notes: as for B1
B7: 18089-C9 (scFv)
scFv: EVQLLESGPTLVKPTQTLTLTCTFSGFSFTTHKMGVDWIRQPPGKALEWLALIYWNDDKRYSPSLQSRLTITKDTSKNQVVLTMTNMDPVDTATYYCAYRRYNWNYENWFDPWGQGTLVTVSSGGGGSGGGGSGGGGSELQMTQSPSSLSASVGDRVTITCRASQFISSYLNWYQQKPGKAPKLLIYAASSLQSGVPSRFSGRGSGTDFTLTISSLQPEDFATYYCQQSYSTPFTFGPGTKVEIK
notes: as for B1
B8: 18089-D11 (scFv)
scFv: EVQLLESGPVLVKPTQTLTLTCTFSGFSFTTHKMGVDWIRQPPGKALEWLALIYWNDDKRYNPSLQSRLTITKDTSKNQVVLTMTNMDPVDTATYYCAYRRYNWNYENWFDPWGQGTLVTVSSGGGGSGGGGSGGGGSELVMTQSPSSLSASVGDRVTITCRASQSISNYFNWYQQKPGKAPKLLIYAASSLQSGVPSRFSGSGSGTDFTLTISSLQPEDFATYYCQQSYITPFTFGGGTKLEIK
notes: as for B1
B9: 18179-D7 (scFv)
scFv: EVQLLESGGGLVQPGGSLRLSCAASGFTFSNAWMSWVRQAPGKGLEWVGRIKGNTYGGTTDYAAPVKGRFTISRDDSKNTLFLQMNSLKTEDTAVYYCTTPSYSGSYYNYFSVMDVWGQGTTVTVSSGGGGSGGGGSGGGGSELVMTQSPSSLSASVGDRVTITCRTSQSISSYLNWYQQKPGRAPKLLIFAASSLQGGVPSRFSGSGSGTDFTLTISSLQPEDFATYYCQQTYSMPFTFGPGTKVDIK
notes: as for B1
B10: 18179-A7 (scFv)
scFv: EVQLLESGGGLVKPGGSLRLSCAASGFTFSNAWMSWVRQAPGKGLEWVGRIKGNTYGGTTDYAAPVKGRFTISRDDSKNTLFLQMNSLKTEDTAVYYCTTPSYSGSYYNYFSVMDVWGQGTTVTVSSGGGGSGGGGSGGGGSELVMTQSPSSLSASVGDRVTITCRTSQSISSYLNWYQQKPGRAPKLLIFAASSLQGGVPSRFSGSGSGTDFTLTISSLQPEDFATYYCQQTYSMPFTFGPGTKVDIK
notes: as for B1
B11: 18179-B12 (scFv)
scFv: EVQLLESGGGLVQPGGSLRLSCAASGFTFSNAWMSWVRQAPGKGLEWVGRIKGNTYGGTTDYAAPVKGRFTISRDDSKNTLFLQMNSLKTEDTAVYYCTTPSNSGSYYNYFSVMDVWGQGTTVTVSSGGGGSGGGGSGGGGSELVMTQSPSSLSASVGDRVTITCRTSQSISSYLNWFQQKPGKAPKLLIFAASSLQSGVPSRFSGSGSGTDFTLTISSLQPEDFATYYCQQTYSMPFTFGPGTKVEIK
notes: as for B1
B12: 18179-D11 (scFv)
scFv: EVQLLESGGGLVKPGGSLRLSCAASGFTFSNAWMSWVRQAPGKGLEWVGRIKGNTYGGTTDYAAPVKGRFTISRDDSKNTLFLQMNSLKTEDTAVYYCTTPSYSGSYYNYFSVMDVWGQGTTVTVSSGGGGSGGGGSGGGGSELQMTQSPSSLSASVGDRVTITCRTSQSISSYLNWYQQKPGRAPKLLIFAASSLQGGVPSRFSGSGSGTDFTLTISSLQPEDFATYYCQQTYSMPFTFGPGTKVDIK
notes: as for B1

Legend:
Test in all cases: flow cytometry, peptide-loaded T2 cells;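 note: binding of single-chain Fv antibody constructs, raised in XenoMouse, to peptide-pulsed T2 cells measured by flow cytometry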
[1] = molecular target: T1, SLK peptide complexed with HLA-A*02:01 on T2 cells (human)
T1 construct: whole, on cells
Experimental: (§1) Binding of pMAGE-HLA scFv constructs, generated from the XenoMouse, on peptide loaded T2 cells was evaluated by flow cytometry.

[2] = molecular target: T2, MAGEB2 peptide … (SEQ ID NO: 1) complexed with HLA-A*02:01 on the cell surface (human)
T2 construct: whole, on cells; also called pMAGE-HLA; MAGEB2 pMHC
Experimental: as §1

[3] = molecular target: T3, COX14 peptide complexed with HLA-A*02:01 on T2 cells (human)
T3 construct: whole, on cells
Experimental: as §1

[4] = molecular target: T4, MYOF peptide complexed with HLA-A*02:01 on T2 cells (human)
T4 construct: whole, on cells
Experimental: as §1

[5] = molecular target: T5, ADF peptide complexed with HLA-A*02:01 on T2 cells (human)
T5 construct: whole, on cells
Experimental: as §1

[6] = molecular target: T6, STXBP5 peptide complexed with HLA-A*02:01 on T2 cells (human)
T6 construct: whole, on cells
Experimental: as §1

[7] = molecular target: T7, KEA peptide complexed with HLA-A*02:01 on T2 cells (human)
T7 construct: whole, on cells
Experimental: as §1

[8] = molecular target: T8, CNDP2 peptide complexed with HLA-A*02:01 on T2 cells (human)
T8 construct: whole, on cells; also called CNPD2
Experimental: as §1

[9] = molecular target: T9, MB peptide complexed with HLA-A*02:01 on T2 cells (human)
T9 construct: whole, on cells
Experimental: as §1

[10] = molecular target: T10, DPYSL4 peptide complexed with HLA-A*02:01 on T2 cells (human)
T10 construct: whole, on cells
Experimental: as §1

Binder | Signal/background [1] | Signal/background [2] | Signal/background [3] | Signal/background [4] | Signal/background [5] | Signal/background [6] | Signal/background [7] | Signal/background [8] | Signal/background [9] | Signal/background [10]
B1 | 1 | 298 | 1.1 | 1.2 | 1 | 1 | 0.9 | 1 | 1.2 | 1
B2 | 1.1 | 42 | 1.2 | 0.9 | 1.1 | 0.9 | 0.9 | 0.8 | 0.9 | 1.1
B3 | 1 | 43 | 1 | 0.9 | 1.3 | 0.9 | 1 | 0.8 | 1 | 1
B4 | 1.4 | 298 | 1.1 | 1.1 | 1 | 1.1 | 1 | 1 | 1 | 1.2
B5 | 1.1 | 153 | 1 | 1.1 | 1 | 1 | 1.1 | 1 | 1.1 | 1.1
B6 | 1.1 | 32 | 1 | 1.1 | 0.9 | 0.9 | 0.9 | 0.9 | 1 | 1
B7 | 1.1 | 39 | 1 | 1 | 1 | 1 | 1 | 1 | 1.1 | 0.9
B8 | 1.2 | 78 | 1.1 | 1.1 | 1.1 | 1.1 | 1 | 1 | 1.2 | 1.1
B9 | 1.1 | 281 | 1 | 1 | 1 | 1 | 1 | 1.1 | 1 | 1.1
B10 | 1 | 267 | 1 | 1 | 1 | 1 | 0.9 | 1 | 1.1 | 1
B11 | 1 | 368 | 1 | 1 | 1 | 1 | 1 | 1 | 1 | 1
B12 | 1 | 345 | 1 | 1.1 | 1 | 1 | 1 | 1 | 1 | 1.1
